T1: authentic Hsp26 from yeast (S. cerevisiae), P15992
T1 chain: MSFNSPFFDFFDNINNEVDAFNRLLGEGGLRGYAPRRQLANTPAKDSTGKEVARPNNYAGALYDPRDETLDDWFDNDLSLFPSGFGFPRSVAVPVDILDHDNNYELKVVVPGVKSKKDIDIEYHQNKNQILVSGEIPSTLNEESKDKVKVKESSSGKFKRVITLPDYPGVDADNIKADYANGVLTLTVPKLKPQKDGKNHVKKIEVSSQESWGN


Columns and labels:
[1] = target: Hsp26 FRET complex (5 µM LYI-labeled and 5 µM AIAS-labeled Hsp26 S5C, pre-formed at 40 °C) (S. cerevisiae) (UniProt P15992); assay: FRET or BRET; subunit exchange: unlabeled Hsp26 in 39-fold molar excess added to the pre-formed FRET complex, 40 °C, decrease of acceptor fluorescence at 520 nm for 1500 s, exponential fit, kexchange = 1/t1
[2] = target: the molecule itself; assay: cryo-EM structure; 2.0-3.3 mg/ml protein plunge-frozen, Titan Krios 300 kV, K2; 2D class averages (IMAGIC) compared with 40mer reprojections, 3D reconstruction in cryoSPARC
[3] = target: the molecule itself; assay: CD thermal transition; far-UV CD at 218 nm, 12.5 µM protein in PBS, 20 to 90 °C at 1 K/min; the lower transition is taken as the disassembly of the oligomer
[4] = target: the molecule itself; assay: cryo-EM structure; S207E dataset; asymmetric heterogeneous refinement (3D classification) in cryoSPARC into 13 classes; class C13
[5] = target: the molecule itself; assay: AUC; sedimentation velocity, 23 µM protein, 35,000 rpm (98,500 × g), 20 °C, PBS, absorbance at 280 nm, c(S) distribution in SEDFIT
[6] = target: the molecule itself; assay: SEC; analytical SEC-HPLC, Superdex200 increase 10/300GL, PBS, 0.5 ml/min, RT, 20 µl of a 20 µM protein solution loaded
[7] = target: T1, authentic Hsp26 from yeast (S. …); assay: cryo-EM structure; 2.0-3.3 mg/ml protein plunge-frozen, Titan Krios 300 kV, K2; 2D class averages (IMAGIC) compared with 40mer reprojections, 3D reconstruction in cryoSPARC; settings: remark: other sources report otherwise

exchange constant [1] [s⁻¹]	Binder	dissociation temperature of the oligomer [3] [°C]	also measured
0.0032	Hsp26 wild-type (WT) protein, recombinant (natural protein, S. cerevisiae, Hsp26, small heat shock protein of S. cerevisiae; HSP26 cloned into pQE60 with NcoI and HindIII, which adds a glycine after the start methionine; Forms an ensemble of oligomers, predominantly a 40mer; also called Hsp26 WT; source: E. coli HB101, purified (Q-Sepharose, Superdex200, Resource Q)) MGSFNSPFFDFFDNINNEVDAFNRLLGEGGLRGYAPRRQLANTPAKDSTGKEVARPNNYAGALYDPRDETLDDWFDNDLSLFPSGFGFPRSVAVPVDILDHDNNYELKVVVPGVKSKKDIDIEYHQNKNQILVSGEIPSTLNEESKDKVKVKESSSGKFKRVITLPDYPGVDADNIKADYANGVLTLTVPKLKPQKDGKNHVKKIEVSSQESWGN	42.1	fraction of particles representing 40mer views [2]: 48.9%; stoichiometry N [2]: 40
–	Hsp26 T48E (natural protein, S. cerevisiae, Hsp26 of S. cerevisiae, phospho-mimetic mutant in pQE60::HSP26; source: E. coli HB101, purified (Q-Sepharose, Superdex200, Resource Q)) MGSFNSPFFDFFDNINNEVDAFNRLLGEGGLRGYAPRRQLANTPAKDSEGKEVARPNNYAGALYDPRDETLDDWFDNDLSLFPSGFGFPRSVAVPVDILDHDNNYELKVVVPGVKSKKDIDIEYHQNKNQILVSGEIPSTLNEESKDKVKVKESSSGKFKRVITLPDYPGVDADNIKADYANGVLTLTVPKLKPQKDGKNHVKKIEVSSQESWGN	< 40	–
–	Hsp26 S207E (natural protein, S. cerevisiae, UniProt P15992 1-214, looked up, an additional glycine stands after the start methionine; phospho-mimetic mutant of the C-terminal region; predominant species a 40mer, one 3D class a 42mer; source: E. coli HB101, purified (Q-Sepharose, Superdex200, Resource Q)) MGSFNSPFFDFFDNINNEVDAFNRLLGEGGLRGYAPRRQLANTPAKDSTGKEVARPNNYAGALYDPRDETLDDWFDNDLSLFPSGFGFPRSVAVPVDILDHDNNYELKVVVPGVKSKKDIDIEYHQNKNQILVSGEIPSTLNEESKDKVKVKESSSGKFKRVITLPDYPGVDADNIKADYANGVLTLTVPKLKPQKDGKNHVKKIEVESQESWGN	–	stoichiometry N [4]: 42
–	Hsp26 S47E (natural protein, S. cerevisiae, Hsp26 of S. cerevisiae, phospho-mimetic mutant in pQE60::HSP26; source: E. coli HB101, purified (Q-Sepharose, Superdex200, Resource Q)) MGSFNSPFFDFFDNINNEVDAFNRLLGEGGLRGYAPRRQLANTPAKDETGKEVARPNNYAGALYDPRDETLDDWFDNDLSLFPSGFGFPRSVAVPVDILDHDNNYELKVVVPGVKSKKDIDIEYHQNKNQILVSGEIPSTLNEESKDKVKVKESSSGKFKRVITLPDYPGVDADNIKADYANGVLTLTVPKLKPQKDGKNHVKKIEVSSQESWGN	–	binding result [5]: binds
–	Hsp26 T42E (natural protein, S. cerevisiae, Hsp26 of S. cerevisiae, phospho-mimetic mutant in pQE60::HSP26; source: E. coli HB101, purified (Q-Sepharose, Superdex200, Resource Q)) MGSFNSPFFDFFDNINNEVDAFNRLLGEGGLRGYAPRRQLANEPAKDSTGKEVARPNNYAGALYDPRDETLDDWFDNDLSLFPSGFGFPRSVAVPVDILDHDNNYELKVVVPGVKSKKDIDIEYHQNKNQILVSGEIPSTLNEESKDKVKVKESSSGKFKRVITLPDYPGVDADNIKADYANGVLTLTVPKLKPQKDGKNHVKKIEVSSQESWGN	< 40	–
0.0032	Hsp26 S144E (natural protein, S. cerevisiae, Hsp26 of S. cerevisiae, phospho-mimetic mutant in pQE60::HSP26; source: E. coli HB101, purified (Q-Sepharose, Superdex200, Resource Q)) MGSFNSPFFDFFDNINNEVDAFNRLLGEGGLRGYAPRRQLANTPAKDSTGKEVARPNNYAGALYDPRDETLDDWFDNDLSLFPSGFGFPRSVAVPVDILDHDNNYELKVVVPGVKSKKDIDIEYHQNKNQILVSGEIPSTLNEEEKDKVKVKESSSGKFKRVITLPDYPGVDADNIKADYANGVLTLTVPKLKPQKDGKNHVKKIEVSSQESWGN	35.1 ± 0.1	–
0.0036	Hsp26 T163E (natural protein, S. cerevisiae, Hsp26 of S. cerevisiae, phospho-mimetic mutant in pQE60::HSP26; source: E. coli HB101, purified (Q-Sepharose, Superdex200, Resource Q)) MGSFNSPFFDFFDNINNEVDAFNRLLGEGGLRGYAPRRQLANTPAKDSTGKEVARPNNYAGALYDPRDETLDDWFDNDLSLFPSGFGFPRSVAVPVDILDHDNNYELKVVVPGVKSKKDIDIEYHQNKNQILVSGEIPSTLNEESKDKVKVKESSSGKFKRVIELPDYPGVDADNIKADYANGVLTLTVPKLKPQKDGKNHVKKIEVSSQESWGN	34.6 ± 0.9	–
–	Hsp26 S208E (natural protein, S. cerevisiae, Hsp26 of S. cerevisiae, phospho-mimetic mutant in pQE60::HSP26; source: E. coli HB101, purified (Q-Sepharose, Superdex200, Resource Q)) MGSFNSPFFDFFDNINNEVDAFNRLLGEGGLRGYAPRRQLANTPAKDSTGKEVARPNNYAGALYDPRDETLDDWFDNDLSLFPSGFGFPRSVAVPVDILDHDNNYELKVVVPGVKSKKDIDIEYHQNKNQILVSGEIPSTLNEESKDKVKVKESSSGKFKRVITLPDYPGVDADNIKADYANGVLTLTVPKLKPQKDGKNHVKKIEVSEQESWGN	< 40	–
0.004	Hsp26 S90E (natural protein, S. cerevisiae, Hsp26 of S. cerevisiae, phospho-mimetic mutant in pQE60::HSP26; source: E. coli HB101, purified (Q-Sepharose, Superdex200, Resource Q)) MGSFNSPFFDFFDNINNEVDAFNRLLGEGGLRGYAPRRQLANTPAKDSTGKEVARPNNYAGALYDPRDETLDDWFDNDLSLFPSGFGFPREVAVPVDILDHDNNYELKVVVPGVKSKKDIDIEYHQNKNQILVSGEIPSTLNEESKDKVKVKESSSGKFKRVITLPDYPGVDADNIKADYANGVLTLTVPKLKPQKDGKNHVKKIEVSSQESWGN	< 40	–
0.0036	Hsp26 S208E/S211E (natural protein, S. cerevisiae, Hsp26 of S. cerevisiae, phospho-mimetic double mutant in pQE60::HSP26; also called CTR double mutant; source: E. coli HB101, purified (Q-Sepharose, Superdex200, Resource Q)) MGSFNSPFFDFFDNINNEVDAFNRLLGEGGLRGYAPRRQLANTPAKDSTGKEVARPNNYAGALYDPRDETLDDWFDNDLSLFPSGFGFPRSVAVPVDILDHDNNYELKVVVPGVKSKKDIDIEYHQNKNQILVSGEIPSTLNEESKDKVKVKESSSGKFKRVITLPDYPGVDADNIKADYANGVLTLTVPKLKPQKDGKNHVKKIEVSEQEEWGN	< 40	–
–	Hsp26 S207E (natural protein, S. cerevisiae, Hsp26 of S. cerevisiae, phospho-mimetic mutant in pQE60::HSP26; source: E. coli HB101, purified (Q-Sepharose, Superdex200, Resource Q)) MGSFNSPFFDFFDNINNEVDAFNRLLGEGGLRGYAPRRQLANTPAKDSTGKEVARPNNYAGALYDPRDETLDDWFDNDLSLFPSGFGFPRSVAVPVDILDHDNNYELKVVVPGVKSKKDIDIEYHQNKNQILVSGEIPSTLNEESKDKVKVKESSSGKFKRVITLPDYPGVDADNIKADYANGVLTLTVPKLKPQKDGKNHVKKIEVESQESWGN	–	fraction of particles representing 40mer views [2]: 34.2%; stoichiometry N [2]: 40
0.004	Hsp26 S47E/T48E (natural protein, S. cerevisiae, Hsp26 of S. cerevisiae, phospho-mimetic double mutant in pQE60::HSP26; source: E. coli HB101, purified (Q-Sepharose, Superdex200, Resource Q)) MGSFNSPFFDFFDNINNEVDAFNRLLGEGGLRGYAPRRQLANTPAKDEEGKEVARPNNYAGALYDPRDETLDDWFDNDLSLFPSGFGFPRSVAVPVDILDHDNNYELKVVVPGVKSKKDIDIEYHQNKNQILVSGEIPSTLNEESKDKVKVKESSSGKFKRVITLPDYPGVDADNIKADYANGVLTLTVPKLKPQKDGKNHVKKIEVSSQESWGN	36.8	fraction of particles representing 40mer views [2]: 7.3%; stoichiometry N [2]: 40
–	Hsp26 S211E (natural protein, S. cerevisiae, Hsp26 of S. cerevisiae, phospho-mimetic mutant in pQE60::HSP26; source: E. coli HB101, purified (Q-Sepharose, Superdex200, Resource Q)) MGSFNSPFFDFFDNINNEVDAFNRLLGEGGLRGYAPRRQLANTPAKDSTGKEVARPNNYAGALYDPRDETLDDWFDNDLSLFPSGFGFPRSVAVPVDILDHDNNYELKVVVPGVKSKKDIDIEYHQNKNQILVSGEIPSTLNEESKDKVKVKESSSGKFKRVITLPDYPGVDADNIKADYANGVLTLTVPKLKPQKDGKNHVKKIEVSSQEEWGN	–	binding result [6]: binds
–	authentic Hsp26 from yeast, P15992 1-214 (natural protein) MSFNSPFFDFFDNINNEVDAFNRLLGEGGLRGYAPRRQLANTPAKDSTGKEVARPNNYAGALYDPRDETLDDWFDNDLSLFPSGFGFPRSVAVPVDILDHDNNYELKVVVPGVKSKKDIDIEYHQNKNQILVSGEIPSTLNEESKDKVKVKESSSGKFKRVITLPDYPGVDADNIKADYANGVLTLTVPKLKPQKDGKNHVKKIEVSSQESWGN	–	stoichiometry N [7]: 40

From paper PMC8602628, “Phosphorylation activates the yeast small heat shock protein Hsp26 by weakening domain contacts in the oligomer ensemble” (Nature Communications, 2021)
